In patent publication US20090270318A1:
Numbering of substitutions follows the chain as printed. Numbers in names are those of the source. Where “and” joins values, the source holds several entries; their conditions need not be identical. Equal entries are not always repeated. Values belong to the molecule of their own block, whether it stands above or below them.

Assays:
[1] = molecular target: CXCL8 receptors on bovine peripheral blood neutrophils; assay: displacement of 20 pM 125I-CXCL8 from 10^6 bovine neutrophils, 45 min on ice
[2] = molecular target: CXCL8 receptors on bovine peripheral blood neutrophils; assay: biotCXCL8 binding inhibition on bovine neutrophils; 10 ng/ml unlabeled CXCL8 2 h at 4 C, wash, then 1 ug/ml biotCXCL8; cell ELISA
[3] = molecular target: CXCL8 receptors on bovine peripheral blood neutrophils; assay: 1000 ng/ml biotCXCL8 on medium-treated bovine neutrophils; streptavidin-enzyme and ABTS; ELISA plate reader
[4] = molecular target: CXCL8 receptors on bovine peripheral blood neutrophils; assay: biotCXCL8 binding inhibition on bovine neutrophils; 10 ng/ml analogue 2 h at 4 C, wash, then 1 ug/ml biotCXCL8; cell ELISA
[5] = molecular target: CXCL8 receptors on bovine peripheral blood neutrophils; assay: displacement of 20 pM 125I-CXCL8 from bovine neutrophils; reference is unlabeled wildtype CXCL8
[6] = molecular target: CXCL8 receptors on bovine peripheral blood neutrophils; assay: cell-based or functional assay

Molecule: biotinylated CXCL8 (from UniProt P79255 23-101) (ligand)
OD405 [3]: 0.5 to 0.6 OD405

B2: bovine CXCL8(3-74)K11R/P32G (ligand)
chain: TELRCQCIRTHSTPFHPKFIKELRVIESGGHCENSEIIVKLTNGNEVCLNPKEKWVQKVVQVFVKRAEKQDP
percent of ^biotCXCL8 binding blocked [4]: 48%
agonist activity: chemotaxis of bovine neutrophils to 100 ng/ml analogue, as percent of the CXCL8 response [6]: 38.3%

Further lines, results first:

IC50 [1]: 120 pM
percent of ^biotCXCL8 binding blocked [2]: 30%
Molecule: bovine CXCL8 (wild type, unlabeled) (from UniProt P79255 23-101) (ligand)

percent of ^biotCXCL8 binding blocked [4]: 95%
fold more effective than wildtype CXCL8 in inhibiting 125I-CXCL8 binding [5]: 100 fold
IC50 [1]: 4 pM
IC50, inhibition of bovine neutrophil chemotaxis to 1 µg/ml (129 nM) CXCL8 [6]: 110 pM
agonist activity: chemotaxis of bovine neutrophils to 100 ng/ml analogue, as percent of the response to 1 ng/ml CXCL8 [6]: 13.9%
agonist activity: chemotaxis of bovine neutrophils to 100 ng/ml analogue, as percent of the response to 100 ng/ml CXCL8 [6]: 5.4%
concentration for complete blocking of bovine neutrophil chemotaxis to 1 µg/ml CXCL8 [6]: 10 nM
concentration for complete inhibition of bovine neutrophil chemotaxis to human CXCL5, CXCL1 or CXCL8 [6]: 3 nM and 20 nM
concentration reducing bovine neutrophil chemotaxis to 1 ng/ml hCXCL1 to 50% [6]: 0.26 nM
concentration reducing bovine neutrophil chemotaxis to 1 ng/ml hCXCL5 to 50% [6]: 0.06 nM
concentration reducing bovine neutrophil chemotaxis to 10 ng/ml hCXCL8 by 50% [6]: 0.04 nM
reduction of bovine neutrophil chemotactic response to 1 µg/ml (129 nM) CXCL8 by 12.9 pM analogue [6]: 33%
B1: bovine CXCL8(3-74)K11R/G31P (ligand)
chain: B2 chain with G29P, G30P
